Target: T1, KcsA (S. lividans), P0A334
T1 chain: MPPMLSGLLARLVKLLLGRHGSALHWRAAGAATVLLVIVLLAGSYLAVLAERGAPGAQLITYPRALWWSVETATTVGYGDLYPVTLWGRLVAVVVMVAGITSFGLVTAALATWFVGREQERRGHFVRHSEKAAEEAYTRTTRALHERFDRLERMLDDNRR
Test: SDS-PAGE
Settings: remark: other sources report otherwise

B1: KcsA, P0A334 1-160 (natural protein)
chain: MPPMLSGLLARLVKLLLGRHGSALHWRAAGAATVLLVIVLLAGSYLAVLAERGAPGAQLITYPRALWWSVETATTVGYGDLYPVTLWGRLVAVVVMVAGITSFGLVTAALATWFVGREQERRGHFVRHSEKAAEEAYTRTTRALHERFDRLERMLDDNRR
stoichiometry N: 4
